Results published in patent US20210380710A1.
Blank lines part the entries; values can stand above or below the substance they belong to.

Assays:
[1] = target: human CD20 on the cell surface (Raji, Ramos, Namalwa cells) (human) (UniProt P11836); experiment: flow cytometry on Ramos cells, antibody 10 ug/ml
[2] = target: human CD3 on the cell surface (Jurkat cells) (human) (UniProt P07766); experiment: flow cytometry on Jurkat cells, antibody 10 ug/ml
[3] = target: human CD3 on the cell surface (Jurkat cells) (human) (UniProt P07766); experiment: flow cytometry on Hut78 cells (target on Hut78 not given), antibody 10 ug/ml
[4] = target: human CD20 on the cell surface (Raji, Ramos, Namalwa cells) (human) (UniProt P11836); experiment: flow cytometry on Ramos cells, secondary antibody alone
[5] = target: human CD3 on the cell surface (Jurkat cells) (human) (UniProt P07766); experiment: flow cytometry on Hut78 cells (target on Hut78 not given), secondary antibody alone
[6] = target: human CD20 on the cell surface (Raji, Ramos, Namalwa cells) (human) (UniProt P11836); experiment: flow cytometry on Raji cells, secondary antibody alone
[7] = target: human CD3 on the cell surface (Jurkat cells) (human) (UniProt P07766); experiment: flow cytometry on Jurkat cells, secondary antibody alone
[8] = target: human CD20 on the cell surface (Raji, Ramos, Namalwa cells) (human) (UniProt P11836); experiment: flow cytometry on Raji cells
[9] = target: human CD20 on the cell surface (Raji, Ramos, Namalwa cells) (human) (UniProt P11836); experiment: FACS affinity on Ramos cells, FITC bead quantitation
[10] = target: human CD3 on the cell surface (Jurkat cells) (human) (UniProt P07766); experiment: flow cytometry on Jurkat cells
[11] = target: human CD20 on the cell surface (Raji, Ramos, Namalwa cells) (human) (UniProt P11836); experiment: cell-based or functional assay
[12] = target: human CD3 on the cell surface (Jurkat cells) (human) (UniProt P07766); experiment: FACS affinity on Jurkat cells, FITC bead quantitation; set-up: Bmax: unit not given here
[13] = target: human CD20 on the cell surface (Raji, Ramos, Namalwa cells) (human) (UniProt P11836); experiment: flow cytometry on Raji cells, antibody 10 ug/ml
[14] = target: PD-1.his (Homo sapiens (Human)) (UniProt Q15116); experiment: ELISA, antigen coated at 2 ug/mL, antibody 10 ug/ml; * specific binding
Sequence of UniProt Q15116 (Q15116 25-170 limits assumed): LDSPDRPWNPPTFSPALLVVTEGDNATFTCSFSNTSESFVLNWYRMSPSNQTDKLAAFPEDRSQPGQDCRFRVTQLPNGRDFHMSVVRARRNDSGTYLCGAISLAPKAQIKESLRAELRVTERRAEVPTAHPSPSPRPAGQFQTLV

Sequence of UniProt P07766 (P07766 23-207, chain 1 of 3): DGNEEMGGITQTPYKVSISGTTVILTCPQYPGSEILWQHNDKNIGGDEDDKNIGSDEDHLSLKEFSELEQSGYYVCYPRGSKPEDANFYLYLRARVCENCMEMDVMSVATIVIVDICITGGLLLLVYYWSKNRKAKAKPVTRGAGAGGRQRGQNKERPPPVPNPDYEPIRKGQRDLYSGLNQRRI
Sequence of UniProt P07766 (P04234 22-171, chain 2 of 3, further chain): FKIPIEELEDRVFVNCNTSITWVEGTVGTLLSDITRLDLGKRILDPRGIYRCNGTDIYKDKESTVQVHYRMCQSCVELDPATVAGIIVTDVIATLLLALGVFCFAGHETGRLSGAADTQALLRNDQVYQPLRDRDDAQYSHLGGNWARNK
Sequence of UniProt P07766 (P09693 23-182, chain 3 of 3, further chain): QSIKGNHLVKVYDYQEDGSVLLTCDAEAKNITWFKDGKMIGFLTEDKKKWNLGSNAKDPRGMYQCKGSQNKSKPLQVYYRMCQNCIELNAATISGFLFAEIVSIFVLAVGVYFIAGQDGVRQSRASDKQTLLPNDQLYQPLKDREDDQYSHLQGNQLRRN
Sequence of UniProt P11836 (P11836 whole entry): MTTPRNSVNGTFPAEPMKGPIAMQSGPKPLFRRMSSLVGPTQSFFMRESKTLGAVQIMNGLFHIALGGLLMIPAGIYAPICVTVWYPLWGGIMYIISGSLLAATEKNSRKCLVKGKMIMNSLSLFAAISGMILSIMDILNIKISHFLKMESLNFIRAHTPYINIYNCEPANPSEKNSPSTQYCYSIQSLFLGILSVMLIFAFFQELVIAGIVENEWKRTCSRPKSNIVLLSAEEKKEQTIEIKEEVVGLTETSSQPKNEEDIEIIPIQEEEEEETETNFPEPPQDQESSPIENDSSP

FACS MFI [1]: 63
FACS MFI [2]: 22
FACS MFI [3]: 38
Substance: Human IgG4L control (antibody)

FACS MFI [4]: 65
FACS MFI [5]: 28
FACS MFI [6]: 67
FACS MFI [7]: 21
Substance: goat anti-human IgG Fc-PE (Jackson, 109-115-098) (antibody)

EC50 [8]: 41.1 nM
Bmax [9]: 6.8e-10
Kd [9]: 67 nM
EC50 [10]: 8.8 nM
EC50 of T cell activation (CD25 expression), CD4+ cells, in the presence of Raji cells [11]: 0.006 nM
EC50 of T cell activation (CD25 expression), CD8+ cells, in the presence of Raji cells [11]: 0.0183 nM
Bmax [12]: 1.1e-10
Kd [12]: 30 nM
Substance: BMK4 (REGN1979) (bispecific antibody)
EC50 of bispecific antibody mediated cytotoxicity, NAMALWA, 4 hours FACS based cytotoxicity assay with CD8+ T cells [11]: 0.0318 nM
EC50 of bispecific antibody mediated cytotoxicity, NAMALWA, two hour calcein release assay with CD8+ T cells [11]: 0.026 nM
EC50 of bispecific antibody mediated cytotoxicity, Raji, 4 hours FACS based cytotoxicity assay with CD8+ T cells [11]: 0.00312 nM
EC50 of bispecific antibody mediated cytotoxicity, Raji, two hour calcein release assay with CD8+ T cells [11]: 0.00269 nM
EC50 of bispecific antibody mediated cytotoxicity, Ramos, two hour calcein release assay with CD8+ T cells [11]: 0.00149 nM

FACS MFI [1]: 68
FACS MFI [13]: 92
FACS MFI [2]: 25
FACS MFI [3]: 61
absorbance at 450 nm [14]: 3.87
Substance: Human IgG4K control (antibody)
